The text below walks through data of patent US20230235039A1.

Where a chain is given by its changes, count along the chain named.

Usually EC50 (read off the curve) stands for the concentration that produces a half-maximal response. Usually Kd stands for the concentration at which binding is half-saturated. The koff is the rate constant with which the complex falls apart. Usually kon stands for a measure of how fast the partners come together.

To fix the notation:
B1: Tab2 (control antibody 2), reslizumab (antibody, INN chains, looked up, V domains shown)
VH: EVQLVESGGGLVQPGGSLRLSCAVSGLSLTSNSVNWIRQAPGKGLEWVGLIWSNGDTDYNSAIKSRFTISRDTSKSTVYLQMNSLRAEDTAVYYCAREYYGYFDYWGQGTLVTVSS
VL: DIQMTQSPSSLSASVGDRVTITCLASEGISSYLAWYQQKPGKAPKLLIYGANSLQTGVPSRFSGSGSATDYTLTISSLQPEDFATYYCQQSYKFPNTFGQGTKVEVK
B2: Fc fusion protein of anti-IL-5 single-domain antibody 1F4 (Fc fusion, not shown: a dimerising Fc or GST)
chain (part 1 of 2): QVQLVESGGGSAQAGGSLRLSCAASGNTLDLMAWFRQAPGKEREGVAGIYSSGTTYYADSVKGRFTVSRDNAKNTVYLQMNSLKPEDAAMYYCAAKVSWYGRWYQSETYEYWGQGTQVTVSS
chain (part 2 of 2): HHHHHH
B3: Tab1 (control antibody 1), mepolizumab (antibody, INN chains, looked up, V domains shown)
VH: QVTLRESGPALVKPTQTLTLTCTVSGFSLTSYSVHWVRQPPGKGLEWLGVIWASGGTDYNSALMSRLSISKDTSRNQVVLTMTNMDPVDTATYYCARDPPSSLLRLDYWGRGTPVTVSS
VL: DIVMTQSPDSLAVSLGERATINCKSSQSLLNSGNQKNYLAWYQQKPGQPPKLLIYGASTRESGVPDRFSGSGSGTDFTLTISSLQAEDVAVYYCQNVHSFPFTFGGGTKLEIK
B4: humanized Fc-fused single-domain antibody 1B3-V1 (Fc fusion, not shown: a dimerising Fc or GST)
chain (part 1 of 2): QVQLVESGGGLVQPGGSLRLSCAASGITASTSCMGWFRQAPGKGLEAVAATIYDGSTYYADSVKGRFTISRDNSKNTLYLQMNSLRAEDTAVYYCAAARYCMFWSHPSYWGQGTLVTVSS
chain (part 2 of 2): HHHHHH
B5: Fc fusion protein of anti-IL-5 single-domain antibody 3G12 (Fc fusion, not shown: a dimerising Fc or GST)
chain (part 1 of 2): QVQLVESGGGSVQAGGSLRLSCVASGLTLNDVSMAWFRQAPGKEREEVAGIDIDGLISYADSVKGRFTISKDNAQNTLYLQMNSLKPEDTAMYSCAAVRLYFSSSRNQYKYEGQGTQVTVSS
chain (part 2 of 2): HHHHHH
B6: Fc fusion protein of anti-IL-5 single-domain antibody 4C3 (Fc fusion, not shown: a dimerising Fc or GST)
chain (part 1 of 2): B5 chain (part 1 of 2) with S62P, L78M
chain (part 2 of 2): HHHHHH
B7: Fc fusion protein of anti-IL-5 single-domain antibody 4G8 (Fc fusion, not shown: a dimerising Fc or GST)
chain (part 1 of 2): QVQLVESGGGSVQAGGSLRLSCAASGITSSTSCMGWFRQSPGKEREGSLATIYDGAISYADSVKGRFTISVDNAKNILYLQMNNLKPEDTAMYYCAAAKYCMFWSDPSYWGQGTQVTVSS
chain (part 2 of 2): HHHHHH
B8: Fc fusion protein of anti-IL-5 single-domain antibody 2F7 (Fc fusion, not shown: a dimerising Fc or GST)
chain (part 1 of 2): B7 chain (part 1 of 2) with S29A, A56S, I57T, E88A, D106H
chain (part 2 of 2): HHHHHH
B9: Fc fusion protein of anti-IL-5 single-domain antibody 1B8 (Fc fusion, not shown: a dimerising Fc or GST)
chain (part 1 of 2): B7 chain (part 1 of 2) with S29A, A56S, I57T, R66Q, D106H
chain (part 2 of 2): HHHHHH
B10: humanized Fc-fused single-domain antibody 1B3-V3 (Fc fusion, not shown: a dimerising Fc or GST)
chain (part 1 of 2): B7 chain (part 1 of 2) with S29A, G55A, A56S, I57T, K99R, D106H
chain (part 2 of 2): HHHHHH
B11: Fc fusion protein of anti-IL-5 single-domain antibody 2G6 (Fc fusion, not shown: a dimerising Fc or GST)
chain (part 1 of 2): B7 chain (part 1 of 2) with A56N
chain (part 2 of 2): HHHHHH
B12: Fc fusion protein of anti-IL-5 single-domain antibody 4H2 (Fc fusion, not shown: a dimerising Fc or GST)
chain (part 1 of 2): B7 chain (part 1 of 2) with G8E, A24V, S32A, A56S
chain (part 2 of 2): HHHHHH
B13: humanized Fc-fused single-domain antibody 1B3-V4 (Fc fusion, not shown: a dimerising Fc or GST)
chain (part 1 of 2): B7 chain (part 1 of 2) with S29A, G55A, A56S, I57T, V71R, K86R, P87A, M92V, K99R, D106H
chain (part 2 of 2): HHHHHH
B14: humanized Fc-fused single-domain antibody 1B3-V5 (Fc fusion, not shown: a dimerising Fc or GST)
chain (part 1 of 2): B7 chain (part 1 of 2) with S29A, A56S, I57T, V71R, A74S, K86R, P87A, M92V, K99R, D106H
chain (part 2 of 2): HHHHHH
B15: Fc fusion protein of anti-IL-5 single-domain antibody 4B12 (Fc fusion, not shown: a dimerising Fc or GST)
chain (part 1 of 2): QVQLVESGGGSVQPGGSLRLSCAASGNTFSFSTYCMGWFRQSPGKEREGSLATIYDGSTAYAGSVKGRFTVSVDNAKNILYLQMNNLKPEDTAMYYCASAKYCMFWSDPSYWGQGTQVTVSS
chain (part 2 of 2): HHHHHH
B16: Fc fusion protein of anti-IL-5 single-domain antibody 4D5 (Fc fusion, not shown: a dimerising Fc or GST)
chain (part 1 of 2): B15 chain (part 1 of 2) with P14A, F31T, V71I, S99A
chain (part 2 of 2): HHHHHH

One test deals with human recombinant IL-5 protein with a histidine tag at carboxyl terminal (human) (UniProt P05113). As to the kind of experiment: cell-based or functional assay.
For the molecule B1, the EC50 for neutralizing IL-5-induced TF-1 cell proliferation is 0.0664. Same read-out and setting: the result for B2 reads 0.1; that for B3, 0.234; that for B4, 2.82.

On to B5, for which the EC50 for neutralizing IL-5-induced TF-1 cell proliferation is 2.09. Take B6: the EC50 for neutralizing IL-5-induced TF-1 cell proliferation turned out to be 4.4. On the same count and under the same terms, the result for B7 reads 0.176. The same measure, in the same setting: the result for B8 reads 0.15; that for B9, 0.175. Turning to B10, the EC50 for neutralizing IL-5-induced TF-1 cell proliferation turned out to be 0.219. On to B11, for which the EC50 for neutralizing IL-5-induced TF-1 cell proliferation stood at 0.188. With B12, the EC50 for neutralizing IL-5-induced TF-1 cell proliferation came to 0.189. Still for that read-out and setting: the result for B13 reads 0.237; that for B14, 0.274; that for B15, 0.196. The same measure, in the same setting: the result for B16 reads 0.427.

The target in another test is IL-5 protein (Novoprotein, Cat #CS 33) (human) (UniProt P05113). As to the kind of experiment: indirect ELISA on IL-5 protein, antibody titrated, OD450. (In an ELISA, binding on a coated surface is turned into a signal by an enzyme label.)
Molecule B1 showed an EC50 (read off the curve) of 0.8 nM. This lies in the sub-nanomolar range.

In another test the target is human recombinant IL-5 protein with a histidine tag at carboxyl terminal (human) (UniProt P05113). Nature of the test: BLI (Octet 96), binding molecule on sensor, IL-5 antigen 200 nM and 2-fold dilutions.
Take B3: the dissociation constant Kd amounted to 0.99 nM, the dissociation rate constant (koff) amounted to 8.22e-05 s⁻¹ and the on-rate constant (kon) was found to be 82600 M⁻¹ s⁻¹.
